The values below come from PMC3458930.

In test [1] the target is caspase-7 (UniProt P55210). As to the kind of experiment: co-immunoprecipitation, Flag-tagged αB-crystallin. The following applies: reference: wild type; sites S45.
Test [2] deals with caspase-3 (UniProt P42574). As to the kind of experiment: co-immunoprecipitation, Flag-tagged αB-crystallin. The settings on record: reference: wild type; sites S45.

As to “αB-crystallin (from UniProt P02511) S45A”, the “binding against the reference” value in test [1] and in test [2] was “weaker” each time.
